Experimental data taken from patent publication US20230321287A1, “RADIOLABELLED GRPR-ANTAGONIST FOR USE AS THERAGNOSTIC” (NOVARTIS AG, priority 2019, published 2023).

Legend:
clinical [1] = settings: for tissue uptake at 2 h / tissue uptake at 4 h / tissue uptake at 0.25 h / tissue uptake at 1 h: human, Relative radiotracer uptake
From the text: The primary objective was to characterize preliminary targeting properties of [68Ga] NeoB in patients with malignancies known to overexpress GRPR. The primary efficacy endpoints were: • Number and location of tumor lesions detected by [68Ga]-NeoBOMB1 overall and for each tumor type • Calculation of the ratio tumor/background standard uptake value (SUV) and %injected dose per gram of tissue (ID/g) and calculation of absorbed dose (mGy/MBq) in tumor overall and for each tumor type.
Accordingly, highest relative tracer uptake following administration of a bombesin antagonist is expected in pancreas, kidney, and liver (Roivainen et al, 2013).

clinical [2] = settings: human
From the text: To obtain SUVmean aorta, a spherical volume with a diameter of two (2) cm should be measured within the aortic arch. All SUVr values above one (1) are considered as positive GRPR overexpression.
SUVr is the ratio between SUV mean of each lesion detected by [^68Ga]-NeoBOMB1 and the SUVmean of the region of reference.

CC(C)CC(CC(C)C)NC(=O)[C@H](Cc1cnc[nH]1)NC(=O)CNC(=O)[C@@H](NC(=O)[C@H](C)NC(=O)[C@H](Cc1c[nH]c2ccccc12)NC(=O)[C@H](CCC(N)=O)NC(=O)[C@@H](Cc1ccccc1)NC(=O)COCC(=O)Nc1ccc(CNC(=O)CN2CCN(CC(=O)O)CCN(CC(=O)O)CCN(CC(=O)O)CC2)cc1)C(C)C [[68Ga]-NeoB, metal not drawn] showed a tissue uptake at 2 h (clinical [1]; tumor lesion T2-lungR, total radioactivity, patient FR01-009, 120 min/123.9 min actual) of 0.00377 %ID/g, a tissue uptake at 4 h (clinical [1]; tumor lesion T2-lungR, total radioactivity, patient FR01-009, 240 min/207.9 min actual) of 0.00248 %ID/g and a tissue uptake at 0.25 h (clinical [1]; tumor lesion T3-liverL, total radioactivity, patient FR01-009, 15 min/17.8 min actual) of 0.0135 %ID/g. It also gave a tissue uptake at 1 h (clinical [1]; tumor lesion T3-liverL, total radioactivity, patient FR01-009, 60 min/60.7 min actual) of 0.018 %ID/g, a tissue uptake at 2 h (clinical [1]; tumor lesion T3-liverL, total radioactivity, patient FR01-009, 120 min/123.9 min actual) of 0.00984 %ID/g and a tissue uptake at 4 h (clinical [1]; tumor lesion T3-liverL, total radioactivity, patient FR01-009, 240 min/207.9 min actual) of 0.0178 %ID/g. It also gave a tissue uptake at 0.25 h (clinical [1]; tumor lesion T4-liverR1, total radioactivity, patient FR01-009, tumor lesion T4-liverR1, 15 min/17.8 min actual) of 0.013 %ID/g, a tissue uptake at 1 h (clinical [1]; tumor lesion T4-liverR1, total radioactivity, patient FR01-009, tumor lesion T4-liverR1, 60 min/60.7 min actual) of 0.014 %ID/g and a tissue uptake at 2 h (clinical [1]; tumor lesion T4-liverR1, total radioactivity, patient FR01-009, tumor lesion T4-liverR1, 120 min/123.9 min actual) of 0.0153 %ID/g. For the same compound, the tissue uptake at 4 h (clinical [1]; tumor lesion T4-liverR1, total radioactivity, patient FR01-009, tumor lesion T4-liverR1, 240 min/207.9 min actual) was 0.0116 %ID/g, the tissue uptake at 0.25 h (clinical [1]; tumor lesion T5-liverR2, total radioactivity, patient FR01-009, tumor lesion T5-liverR2, 15 min/17.8 min actual) was 0.015 %ID/g and the tissue uptake at 1 h (clinical [1]; tumor lesion T5-liverR2, total radioactivity, patient FR01-009, tumor lesion T5-liverR2, 60 min/60.7 min actual) was 0.0193 %ID/g. The tissue uptake at 2 h (clinical [1]; tumor lesion T5-liverR2, total radioactivity, patient FR01-009, tumor lesion T5-liverR2, 120 min/123.9 min actual) was 0.022 %ID/g, the tissue uptake at 4 h (clinical [1]; tumor lesion T5-liverR2, total radioactivity, patient FR01-009, tumor lesion T5-liverR2, 240 min/207.9 min actual) was 0.0212 %ID/g and the tissue uptake at 0.25 h (clinical [1]; tumor lesion T6-sacrumL, total radioactivity, patient FR01-009, 15 min/17.8 min actual) was 0.00315 %ID/g. It also gave a tissue uptake at 1 h (clinical [1]; tumor lesion T6-sacrumL, total radioactivity, patient FR01-009, 60 min/60.7 min actual) of 0.00289 %ID/g, a tissue uptake at 2 h (clinical [1]; tumor lesion T6-sacrumL, total radioactivity, patient FR01-009, 120 min/123.9 min actual) of 0.00254 %ID/g and a tissue uptake at 4 h (clinical [1]; tumor lesion T6-sacrumL, total radioactivity, patient FR01-009, 240 min/207.9 min actual) of 0.00188 %ID/g. For the same compound, the tissue uptake at 0.25 h (clinical [1]; tumor lesion T7-liverP, total radioactivity, patient FR01-009, 15 min/17.8 min actual) was 0.0122 %ID/g, the tissue uptake at 1 h (clinical [1]; tumor lesion T7-liverP, total radioactivity, patient FR01-009, 60 min/60.7 min actual) was 0.0118 %ID/g and the tissue uptake at 2 h (clinical [1]; tumor lesion T7-liverP, total radioactivity, patient FR01-009, 120 min/123.9 min actual) was 0.0124 %ID/g. For the same compound, the tissue uptake at 4 h (clinical [1]; tumor lesion T7-liverP, total radioactivity, patient FR01-009, 240 min/207.9 min actual) was 0.0108 %ID/g, the tissue uptake at 0.25 h (clinical [1]; tumor lesion T8-liverR, total radioactivity, patient FR01-009, 15 min/17.8 min actual) was 0.0108 %ID/g and the tissue uptake at 1 h (clinical [1]; tumor lesion T8-liverR, total radioactivity, patient FR01-009, 60 min/60.7 min actual) was 0.00961 %ID/g. The tissue uptake at 2 h (clinical [1]; tumor lesion T8-liverR, total radioactivity, patient FR01-009, 120 min/123.9 min actual) was 0.0109 %ID/g, the tissue uptake at 0.25 h (clinical [1]; urinary bladder wall, total radioactivity, patient FR01-008, 15 min/38.6 min actual) was 0.0313 %ID/g and the tissue uptake at 1 h (clinical [1]; urinary bladder wall, total radioactivity, patient FR01-008, 60 min/62.6 min actual) was 0.0426 %ID/g. It also gave a tissue uptake at 2 h (clinical [1]; urinary bladder wall, total radioactivity, patient FR01-008, 120 min/123.2 min actual) of 0.0214 %ID/g, a tissue uptake at 4 h (clinical [1]; urinary bladder wall, total radioactivity, patient FR01-008, 240 min/221.1 min actual) of 0.0179 %ID/g and a tissue uptake at 0.25 h (clinical [1]; urinary bladder wall, total radioactivity, patient FR01-009, 15 min/17.8 min actual) of 0.0268 %ID/g. It also gave a tissue uptake at 1 h (clinical [1]; urinary bladder wall, total radioactivity, patient FR01-009, 60 min/60.7 min actual) of 0.0648 %ID/g, a tissue uptake at 2 h (clinical [1]; urinary bladder wall, total radioactivity, patient FR01-009, 120 min/123.9 min actual) of 0.0405 %ID/g and a tissue uptake at 4 h (clinical [1]; urinary bladder wall, total radioactivity, patient FR01-009, 240 min/207.9 min actual) of 0.11 %ID/g. The Relative radiotracer uptake (clinical [1]; patient FR01-008, Alveolar-interstitial (Lungs), 15 min/38.6 min actual) was 2.1842E-03 %ID/g, the Relative radiotracer uptake (clinical [1]; patient FR01-008, Alveolar-interstitial (Lungs), 60 min/62.6 min actual) was 9.4759E-04 %ID/g and the Relative radiotracer uptake (clinical [1]; patient FR01-008, Alveolar-interstitial (Lungs), 120 min/123.2 min actual) was 6.7856E-04 %ID/g. The Relative radiotracer uptake (clinical [1]; patient FR01-008, Alveolar-interstitial (Lungs), 240 min/221.1 min actual) was 6.2082E-04 %ID/g, the Relative radiotracer uptake (clinical [1]; patient FR01-008, Heart wall, 15 min/38.6 min actual) was 6.0002E-03 %ID/g and the Relative radiotracer uptake (clinical [1]; patient FR01-008, Heart wall, 60 min/62.6 min actual) was 2.4054E-03 %ID/g. For the same compound, the Relative radiotracer uptake (clinical [1]; patient FR01-008, Heart wall, 120 min/123.2 min actual) was 1.6323E-03 %ID/g, the Relative radiotracer uptake (clinical [1]; patient FR01-008, Heart wall, 240 min/221.1 min actual) was 1.3018E-03 %ID/g and the Relative radiotracer uptake (clinical [1]; patient FR01-008, Kidneys, 15 min/38.6 min actual) was 6.8821E-03 %ID/g. The Relative radiotracer uptake (clinical [1]; patient FR01-008, Kidneys, 60 min/62.6 min actual) was 5.7654E-03 %ID/g, the Relative radiotracer uptake (clinical [1]; patient FR01-008, Kidneys, 120 min/123.2 min actual) was 2.3856E-03 %ID/g and the Relative radiotracer uptake (clinical [1]; patient FR01-008, Kidneys, 240 min/221.1 min actual) was 1.4872E-03 %ID/g. It also gave a Relative radiotracer uptake (clinical [1]; patient FR01-008, Spleen, 240 min/221.1 min actual) of 1.2014E-03 %ID/g, a Relative radiotracer uptake (clinical [1]; patient FR01-008, tumor lesion T1-Chest, 15 min/38.6 min actual) of 3.4664E-03 %ID/g and a Relative radiotracer uptake (clinical [1]; patient FR01-008, tumor lesion T1-Chest, 60 min/62.6 min actual) of 2.1832E-03 %ID/g. For the same compound, the Relative radiotracer uptake (clinical [1]; patient FR01-008, tumor lesion T1-Chest, 120 min/123.2 min actual) was 1.4935E-03 %ID/g, the Relative radiotracer uptake (clinical [1]; patient FR01-008, tumor lesion T1-Chest, 240 min/221.1 min actual) was 1.2884E-03 %ID/g and the Relative radiotracer uptake (clinical [1]; patient FR01-008, tumor lesion T2-Left rib, 15 min/38.6 min actual) was 3.8441E-03 %ID/g. For the same compound, the Relative radiotracer uptake (clinical [1]; patient FR01-008, tumor lesion T2-Left rib, 60 min/62.6 min actual) was 2.5064E-03 %ID/g, the Relative radiotracer uptake (clinical [1]; patient FR01-008, tumor lesion T2-Left rib, 120 min/123.2 min actual) was 1.7251E-03 %ID/g and the Relative radiotracer uptake (clinical [1]; patient FR01-008, tumor lesion T2-Left rib, 240 min/221.1 min actual) was 1.6681E-03 %ID/g. For the same compound, the Relative radiotracer uptake (clinical [1]; patient FR01-008, tumor lesion T3-Spine, 15 min/38.6 min actual) was 4.6895E-03 %ID/g, the Relative radiotracer uptake (clinical [1]; patient FR01-008, tumor lesion T3-Spine, 60 min/62.6 min actual) was 2.2489E-03 %ID/g and the Relative radiotracer uptake (clinical [1]; patient FR01-008, tumor lesion T3-Spine, 120 min/123.2 min actual) was 1.8497E-03 %ID/g. The Relative radiotracer uptake (clinical [1]; patient FR01-008, tumor lesion T3-Spine, 240 min/221.1 min actual) was 1.9539E-03 %ID/g, the SUV (clinical [2]; lesion / region of reference) was about 1 SUV and the SUV (clinical [2]; lesion / spleen or MBP (aorta or heart)) was over 1 SUV.
